Results as given in patent US20090304719A1 (University of California, published 2009).
Bridges are numbered along the chain shown (N, C = ends). Where no end group is shown, it is not given here. CPX = display scaffold, circularly permuted E. coli OmpX, fused C-terminal

Experiments:
VEGF [1] = target: T1, VEGF (UniProt P15692-4 27-191, limits assumed, biotinylated in the FACS assays (sites not given)); experiment: FACS, ABP displayed on E. coli (CPX), labeled VEGF; MMP-2 treated against untreated
T1 construct: Species and isoform are never stated; also called labeled VEGF; biotinylated VEGF
Method: (§1) In experiments involving addition of enzyme, 30 nM MMP-2 was included in the Tris-Cl buffer (no enzyme added to the control reaction), and the reaction mixture was incubated at room temperature for 2 hours. Cells were then removed and diluted 1:100 in PBS (pH 7.4) to stop the reaction, pelleted by centrifugation, and resuspended in 30 microliters of refrigerated PBS containing 25 nM biotinylated VEGF. After incubation in the refrigerator on a rotary shaker for 45 minutes, cells were pelleted at 4° C. and resuspended in refrigerated PBS containing 50 nM Streptavidin-Phycoerythrin fluorescent conjugate. After incubation in the refrigerator on a rotary shaker for 45 minutes, cells were pelleted at 4° C. and resuspended in PBS and red fluorescence was measured for analysis or sorting on a FACSAria cell sorter. The fluorescence of cells treated with enzyme was compared to control samples to determine the increase in VEGF binding.

VEGF [2] = target: T1, VEGF; experiment: FACS, construct displayed on E. coli (CPX), labeled VEGF; treated against untreated
VEGF [3] = target: T1, VEGF; experiment: FACS, construct displayed on E. coli (CPX), labeled VEGF; with MMP-2 against without (FIG. 23)
Method: as §1
(§2) In an additional experiment, the fluorescence values for a cysteine constrained loop structure were determined in the presence and absence of MMP-2 and compared with the fluorescence values for library clones 4.2A.11 (a.k.a. 4-2A-11) and 2.3B.5 (a.k.a. 2-3B-5) in the presence and absence of MMP-2.

VEGF [4] = target: T1, VEGF; experiment: Kd,app of VEGF binding to the construct displayed on E. coli, with MMP-2 against without (FIG. 13)
VEGF [5] = target: T1, VEGF; experiment: SPR (Biacore), VEGF amine-coupled to a CM5 chip, soluble MBP fusion injected with and without 30 nM MMP-2 (FIG. 27)
Method: VEGF was immobilized to the Biacore™ CM5 sensor chip surface using the standard amine coupling kit. An NHS/EDC mixture was injected first to activate the surface using the surface preparation wizard in the Biacore™ software. Then, 25 ug/mL concentration of VEGF was injected until the desired immobilization amount was reached (typically ˜5000 response units). The surface is then blocked with ethanolamine. A control reaction was performed on another surface with NHS/EDC then Ethanolamine.
After the VEGF is covalently immobilized, the maltose-binding protein (MBP) fusions of VEGF binding or VEGF binding ABP clones were injected over both the VEGF surface and the control surface. Injections were typically for 1 minute, with a few minutes of dissociation time after each injection. The clones were injected both with and without 30 nM MMP-2 enzyme. For analysis, the signal on the VEGF surface minus the signal on the control surface is the binding response (in RU).

anti-VEGF scFv TBM = target: T2, anti-VEGF scFv TBM; experiment: FACS, peptide displayed on bacteria, anti-VEGF scFv; clones selected with labeled ranibizumab
T2 construct: The design included a His6 tag at the N-terminus and a TEV site; also called anti-VEGF single chain Fv
Method: Ranibizumab was used to screen a pooled random peptide library, consisting of peptides that are X₁₅ (8.3×10⁹), X₄CX₇CX₄ (3.6×10⁹), or X₁₂CX₃ (1.1×10⁹), where X is any amino acid and the number represents the total diversity of the library. The total diversity of the pooled library was 1.3×10¹⁰. The screening consisted of one round of MACS and […] of FACS sorting. […] In the first FACS screen, positive cells isolated in the MACS screen were probed with 500 nM biotinylated-ranibizumab, and visualized with neutrAvidin-PE (Molecular Probes, Eugene, Oreg.). The second and third rounds of FACS selections were done with 500 nM and then 100 nM Alexa-labeled ranibizumab in the presence of 20 uM IgG. Individual clones were sequenced and subsequently verified for their ability to bind anti-VEGF scfv by FACS analysis.

VEGF [6] = target: T1, VEGF; experiment: FACS, clone displayed on E. coli (CPX), labeled VEGF; with MMP-2 against without (FIG. 23)
Method: as §1, §2

VEGF [7] = target: T1, VEGF; experiment: FACS, construct displayed on E. coli (CPX), labeled VEGF; MMP-2 treated against untreated (FIG. 25)
Method: as §1

[8] = target: T3, UC4F10-11 hamster anti-mouse CTLA4 antibody; experiment: bacterial display screening against anti-CTLA4 antibody; assay for this peptide not detailed
T3 construct: Whole antibody, biotinylated or Dylight-labeled in the sorts; also called mouse anti-CTLA4 antibody (clone UC4 F10-1); anti-CTLA4

VEGF [9] = target: T1, VEGF; experiment: Kd,app of VEGF binding to the clone displayed on E. coli, with MMP-2 against without (FIG. 14)

T2 sequence (scFv, as listed by the source): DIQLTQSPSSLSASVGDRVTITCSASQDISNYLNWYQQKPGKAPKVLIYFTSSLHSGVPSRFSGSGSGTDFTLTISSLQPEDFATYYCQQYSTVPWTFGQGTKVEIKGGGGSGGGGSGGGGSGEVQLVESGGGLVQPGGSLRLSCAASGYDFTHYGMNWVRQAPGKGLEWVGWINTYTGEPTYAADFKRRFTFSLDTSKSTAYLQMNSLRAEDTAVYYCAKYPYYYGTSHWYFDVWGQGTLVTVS
T1 sequence (P15692 other isoform, or with tags, fused parts or gaps limits assumed): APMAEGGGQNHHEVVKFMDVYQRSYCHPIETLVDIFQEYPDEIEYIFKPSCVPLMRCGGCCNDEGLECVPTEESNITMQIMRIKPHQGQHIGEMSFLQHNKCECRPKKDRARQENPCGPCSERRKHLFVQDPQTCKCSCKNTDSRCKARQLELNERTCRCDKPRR
T3 sequence (VH, as listed by the source limits assumed, chain 1 of 2): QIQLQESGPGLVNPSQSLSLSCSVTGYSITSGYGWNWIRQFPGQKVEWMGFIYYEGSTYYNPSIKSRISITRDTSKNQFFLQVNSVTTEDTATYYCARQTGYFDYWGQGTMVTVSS
T3 sequence (VL, as listed by the source limits assumed, chain 2 of 2): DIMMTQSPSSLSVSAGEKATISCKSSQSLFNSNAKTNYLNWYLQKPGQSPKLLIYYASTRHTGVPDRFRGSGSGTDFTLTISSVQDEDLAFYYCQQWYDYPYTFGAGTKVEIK

B1: cysteine constrained loop ABP (designed binder)
chain: GQSGQGCGSGPLGLAGGGSGNFGYGKWEWDYGKWLEKVGGC-{CPX}
modifications: disulfide 7-41 (inferred); also: fused C-terminal to CPX display scaffold, letters not given here
notes: Tested untreated, after MMP-2 treatment and after DTT reduction; also called cysteine constrained parent; cysteine constrained loop structure; not shown: CPX display scaffold (circularly permuted E. coli OmpX), fused C-terminal of the ABP
B1 was tested, and the “fold increase in fluorescence after MMP-2 treatment” value (VEGF [1]) was roughly 2.6 fold, the fold switching activity (VEGF [2]) was 2 fold and the “fold increase in fluorescence in the presence of MMP-2” value (VEGF [3]) was roughly 3 fold. The “fold improvement in Kd,app in the presence of MMP-2” value (VEGF [4]) was roughly 3.4 fold.

B2: maltose-binding protein (MBP) fusion of ABP clone 2.3B.5 (designed binder, not shown: large carriers; small tags and cut ends)
chain: CEYAFGPLGLAGGGSGNFGYGKWEWDYGKWLEKVGGC
modifications: also: fusion with maltose-binding protein (order not certain), disulfide Cys1–C-terminal Cys possible
notes: Soluble protein; the order MBP then ABP is my reading and is not certain; also called 2.3B.5 (2-3B-5) fusion; MBP-ABP fusion
B2 was tested, and the “fold increase in binding response in the presence of MMP-2” value (VEGF [5]) was roughly 4 fold.

GVGLCYTILEQWCEMGR (also called 313 MM) [JS313]: binds (anti-VEGF scFv TBM).

NVECCQNYNLWNCCGGR (also called 308 MM) [JS308]: binds (anti-VEGF scFv TBM).

RPPCCRDYSILECCKSD [JS314]: binds (anti-VEGF scFv TBM).

GAMACYNIFEYWCSAMK (also called 315 MM) [JS315]: binds (anti-VEGF scFv TBM).

B3: ABP library clone 4-2A-11 (designed binder)
chain: GQSGQGEDEEGPLGLAGGGSGNFGYGKWEWDYGKWLEKVGGG
notes: not shown: CPX display scaffold (circularly permuted E. coli OmpX), fused C-terminal of the ABP
With B3 the “fold increase in fluorescence in the presence of MMP-2” value (VEGF [6]) was roughly 5.7 fold.

B4: GS control (designed binder)
chain: GQSGQGGSGGSGGSGGSGGSPLGLAGGGSGNFGYGKWEWDYGKWLEKVGGG
modifications: also: fused C-terminal to CPX display scaffold, letters not given here
notes: Control lacking the cysteine-cysteine disulfide bond; also called GS control polypeptide; not shown: CPX display scaffold (circularly permuted E. coli OmpX), fused C-terminal of the construct
For B4, the “fold increase in fluorescence after enzyme cleavage” value (VEGF [7]) was less than 2 fold.

PCSEWQSMVQPRCYY (also called MMneg) [Negative control MM (does not bind anti-CTLA4)]: no binding [8].

B5: ABP library clone 2-2A-5 (designed binder)
chain: GQSGQPEWGCGPLGLAGGGSGNFGYGKWEWDYGKWLEKVGGC-{CPX}
modifications: disulfide 10-42 (inferred); also: fused C-terminal to CPX display scaffold, letters not given here
notes: Tested untreated, after MMP-2 and after DTT; not shown: CPX display scaffold (circularly permuted E. coli OmpX), fused C-terminal of the ABP
In the case of B5, the “fold improvement in Kd,app in the presence of MMP-2” value (VEGF [9]) is reported as roughly 4.8 fold.

PCSEWQSMVQPRCYYGG [JS306]: binds (anti-VEGF scFv TBM).

ATAVWNSMVKQSCYMQG (also called 283 MM) [JS283]: binds (anti-VEGF scFv TBM).

VHAWEQLVIQELYHC (also called 311 MM) [JS311]: binds (anti-VEGF scFv TBM).

GHGMCYTILEDHCDRVR (also called 292 MM) [JS292]: binds (anti-VEGF scFv TBM).
